Test results as given in patent publication US20110015124A1 (TEMPLE UNIVERSITY OF THE COMMOMWEALTH SYSTEM OF HIGHER …, published 2011).
Starred links: 1 amine or outer side, 2 acyl side, 3 side chain; linkers in the order of their positions; H or OH if unused. Non-standard residues stand in square brackets, D forms with d. Primed or numbered codes have the meaning given here. No end group written: not given here. Tyr(Me)″ = methylated tyrosine, COc1ccc(C[C@H](N[*:1])C(=O)[*:2])cc1; Tyr(3,5-I2) = N[C@@H](Cc1cc(I)c(O)c(I)c1)C(=O)O; dGla = N[C@H](CC(C(=O)O)C(=O)O)C(=O)O; Dap = NC[C@H](N)C(=O)O; βAla = NCCC(=O)O

T1: leptin receptor (ObR) naturally expressed on MCF-7 and DU-45 cells (human, UniProt P48357 22-1165)
T1 sequence (looked up): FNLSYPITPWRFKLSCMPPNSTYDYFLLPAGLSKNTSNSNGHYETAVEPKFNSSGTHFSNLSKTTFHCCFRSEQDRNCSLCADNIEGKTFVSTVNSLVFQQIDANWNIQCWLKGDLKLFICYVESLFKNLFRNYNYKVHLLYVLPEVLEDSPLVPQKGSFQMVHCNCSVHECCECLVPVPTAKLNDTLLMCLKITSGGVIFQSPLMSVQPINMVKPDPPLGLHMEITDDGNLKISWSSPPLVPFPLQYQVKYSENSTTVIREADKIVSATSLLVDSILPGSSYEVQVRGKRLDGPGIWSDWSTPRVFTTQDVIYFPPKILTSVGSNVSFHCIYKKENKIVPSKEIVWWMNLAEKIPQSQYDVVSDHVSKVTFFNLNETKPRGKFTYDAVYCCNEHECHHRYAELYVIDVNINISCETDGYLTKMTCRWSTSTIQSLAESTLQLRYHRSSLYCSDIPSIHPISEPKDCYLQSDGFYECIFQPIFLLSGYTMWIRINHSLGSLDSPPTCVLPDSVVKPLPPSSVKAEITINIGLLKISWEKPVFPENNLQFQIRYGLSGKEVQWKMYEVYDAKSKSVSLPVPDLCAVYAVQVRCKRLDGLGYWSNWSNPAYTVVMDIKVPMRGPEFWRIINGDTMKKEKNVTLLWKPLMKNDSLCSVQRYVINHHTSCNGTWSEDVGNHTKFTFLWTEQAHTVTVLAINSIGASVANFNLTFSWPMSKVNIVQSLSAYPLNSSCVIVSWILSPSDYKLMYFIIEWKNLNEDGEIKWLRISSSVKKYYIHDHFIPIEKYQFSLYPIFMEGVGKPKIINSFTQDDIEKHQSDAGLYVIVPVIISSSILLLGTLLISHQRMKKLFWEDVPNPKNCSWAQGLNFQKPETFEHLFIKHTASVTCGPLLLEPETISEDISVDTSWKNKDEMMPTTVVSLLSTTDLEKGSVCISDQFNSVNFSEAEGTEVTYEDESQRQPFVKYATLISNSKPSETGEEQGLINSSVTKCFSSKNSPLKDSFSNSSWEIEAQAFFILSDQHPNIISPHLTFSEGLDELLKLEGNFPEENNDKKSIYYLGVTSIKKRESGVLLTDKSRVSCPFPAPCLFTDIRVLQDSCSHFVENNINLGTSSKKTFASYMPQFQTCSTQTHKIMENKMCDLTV

T2: human IgG Fc-conjugated ObR extracellular domain (R&D Systems) (human, UniProt P48357 22-839)
T2 construct: extracellular domain; it was detected with an antibody specific for the N-terminus of human ObR; also called ObR extracellular fragment-human Fc chimera; extracellular domain of ObR; not shown: human IgG Fc
T2 sequence (looked up): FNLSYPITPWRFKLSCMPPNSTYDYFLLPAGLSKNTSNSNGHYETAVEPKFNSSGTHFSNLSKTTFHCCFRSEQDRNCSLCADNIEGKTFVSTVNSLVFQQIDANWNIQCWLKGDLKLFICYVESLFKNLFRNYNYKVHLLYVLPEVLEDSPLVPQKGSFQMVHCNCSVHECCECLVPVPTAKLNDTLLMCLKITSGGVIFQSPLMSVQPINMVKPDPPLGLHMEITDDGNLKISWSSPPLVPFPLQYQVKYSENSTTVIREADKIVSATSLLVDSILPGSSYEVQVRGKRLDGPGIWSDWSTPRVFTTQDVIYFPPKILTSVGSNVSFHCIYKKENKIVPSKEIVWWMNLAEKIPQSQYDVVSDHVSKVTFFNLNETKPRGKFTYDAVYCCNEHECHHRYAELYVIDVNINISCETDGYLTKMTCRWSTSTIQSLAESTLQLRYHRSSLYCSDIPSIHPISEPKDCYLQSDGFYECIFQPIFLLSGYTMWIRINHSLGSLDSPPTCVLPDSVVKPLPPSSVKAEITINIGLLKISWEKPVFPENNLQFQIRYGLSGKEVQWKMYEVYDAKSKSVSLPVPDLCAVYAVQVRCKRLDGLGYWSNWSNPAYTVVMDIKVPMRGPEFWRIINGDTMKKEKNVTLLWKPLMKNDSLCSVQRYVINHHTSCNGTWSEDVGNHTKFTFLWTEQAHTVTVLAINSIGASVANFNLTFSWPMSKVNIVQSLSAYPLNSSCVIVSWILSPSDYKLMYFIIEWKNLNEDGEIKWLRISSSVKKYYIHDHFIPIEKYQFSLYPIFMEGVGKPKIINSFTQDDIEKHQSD

B1: F2 peptide (peptide)
peptide: G[Tyr(3,5-I2)]ST[dGla]VV[dA]LSRL-NH2
modifications: N-terminus assumed
SMILES: CC(C)C[C@H](NC(=O)[C@H](CCCNC(=N)N)NC(=O)[C@H](CO)NC(=O)[C@H](CC(C)C)NC(=O)[C@@H](C)NC(=O)[C@@H](NC(=O)[C@@H](NC(=O)[C@@H](CC(C(=O)O)C(=O)O)NC(=O)[C@@H](NC(=O)[C@H](CO)NC(=O)[C@H](Cc1cc(I)c(O)c(I)c1)NC(=O)CN)[C@@H](C)O)C(C)C)C(C)C)C(N)=O
B2: D12 peptide (peptide)
peptide: [Tyr(Me)″]ST[dGla]VV[dA]LSRL-NH2
modifications: N-terminus assumed
SMILES: COc1ccc(C[C@H](N)C(=O)N[C@@H](CO)C(=O)N[C@H](C(=O)N[C@H](CC(C(=O)O)C(=O)O)C(=O)N[C@H](C(=O)N[C@H](C(=O)N[C@H](C)C(=O)N[C@@H](CC(C)C)C(=O)N[C@@H](CO)C(=O)N[C@@H](CCCNC(=N)N)C(=O)N[C@@H](CC(C)C)C(N)=O)C(C)C)C(C)C)[C@@H](C)O)cc1
B3: pyrrhocoricin (peptide, UniProt P37362 1-20, looked up)
peptide: VDKGSYLPRPTPPRPIYNRN
notes: Negative control peptide; also called negative control antibacterial peptide pyrrhocoricin
B4: A4 peptide (peptide)
peptide: G[Tyr(3,5-I2)]STEVV[βAla]LSRL-NH2
modifications: N-terminus assumed
SMILES: CC(C)C[C@H](NC(=O)[C@H](CCCNC(=N)N)NC(=O)[C@H](CO)NC(=O)[C@H](CC(C)C)NC(=O)CCNC(=O)[C@@H](NC(=O)[C@@H](NC(=O)[C@H](CCC(=O)O)NC(=O)[C@@H](NC(=O)[C@H](CO)NC(=O)[C@H](Cc1cc(I)c(O)c(I)c1)NC(=O)CN)[C@@H](C)O)C(C)C)C(C)C)C(N)=O
B5: A11 peptide (peptide)
peptide: [Tyr(Me)″]STEVV[βAla]LSRL-NH2
modifications: N-terminus assumed
SMILES: COc1ccc(C[C@H](N)C(=O)N[C@@H](CO)C(=O)N[C@H](C(=O)N[C@@H](CCC(=O)O)C(=O)N[C@H](C(=O)N[C@H](C(=O)NCCC(=O)N[C@@H](CC(C)C)C(=O)N[C@@H](CO)C(=O)N[C@@H](CCCNC(=N)N)C(=O)N[C@@H](CC(C)C)C(N)=O)C(C)C)C(C)C)[C@@H](C)O)cc1

How the values were obtained:
[1] = biological target: leptin receptor (ObR) naturally expressed on MCF-7 and DU-45 cells (human) (UniProt P48357); test: cell-based or functional assay
[2] = biological target: T1, leptin receptor (ObR) naturally …; test: cell-based or functional assay
[3] = biological target: T1, leptin receptor (ObR) naturally …; test: cell-based or functional assay; remark: listed apart in the source
[4] = biological target: T2, human IgG Fc-conjugated ObR …; test: ELISA-type solid-phase binding assay, peptide on plate, ObR-Fc in solution
Description: For dot-blot and ELISA assays, the leptin fragments were dissolved in electroblot transfer buffer (25 mM Tris and […] buffer containing 20% methanol) and were applied to either a nitrocellulose membrane or dried upon ELISA plates (Otvos, L., Jr., and Szendrei, G. I. (1996) Enzyme-linked immunosorbent assay of peptides. In: Neuropeptide Protocols (G. B. Irvine and C. H. Williams, eds.). Humana Press, Totowa, N.J., pp. 269-275). The solid surfaces were blocked with 5% BSA in a PBS-0.5% Tween 20 buffer (PBST) for 3 hours at room temperature and were subsequently incubated with 10 μg/mL solution of human IgG Fc-conjugated ObR extracellular domain (R&D Systems) dissolved in Tris-buffered saline-0.1% Tween 20 buffer (TBST) containing 1% bovine serum albumin (BSA) for 1 hour. A monoclonal goat antibody (Santa Cruz Biotechnology), specific for the N-terminus of human ObR, was added to the assay mixture, followed by addition of a horseradish peroxidase(HRP)-conjugated anti-goat IgG donkey antibody for the dot-blot assay, and HRP-conjugated anti-goat Fc mouse antibody for ELISA assay (used at a 1:15,000 dilution in PBST and 1% BSA). Between reagents, the solid surfaces were washed extensively with PBST. After washing with PBST, the membrane was treated with a chemiluminescence luminol oxidizer (NEN) for 1 min. […] Optical absorbance values were read at 490 nm using a microplate reader. […]

Molecule	Relative stimulation (%) of MCF-7 cells, with 10 nM leptin [3] [%]	other results
human leptin (R&D Systems) (from UniProt P41159 22-167)		MCF-7 cell growth (cell count, 5 days) [1]: 40%
[Tyr(3,5-I2)]S(β‑D‑glucose)TEVVALSRL[Dap](Ac)-NH2 [E1Free glycopeptide]		EC50 estimated from ERK1/2 stimulation in MCF-7 cells [2]: 100 to 150 nM
B1	-15	
B2	-43	
B3		binding result [4]: no binding
B4	-10	
B5	-3	
